Assay [1] addresses α6β1 integrin on human cells (1064SK fibroblasts, endothelial cells) (human) (UniProt P23229). Put plainly: cell-based or functional assay.
For assay [2], the target named is αvβ3 integrin on human cells (human) (UniProt P06756). The assay can be described thus: cell-based or functional assay.

We go through 2 substances from patent EP1892250A2.

αvβ3 integrin on human cells (human), sequence (P06756 31-1048, chain 1 of 2): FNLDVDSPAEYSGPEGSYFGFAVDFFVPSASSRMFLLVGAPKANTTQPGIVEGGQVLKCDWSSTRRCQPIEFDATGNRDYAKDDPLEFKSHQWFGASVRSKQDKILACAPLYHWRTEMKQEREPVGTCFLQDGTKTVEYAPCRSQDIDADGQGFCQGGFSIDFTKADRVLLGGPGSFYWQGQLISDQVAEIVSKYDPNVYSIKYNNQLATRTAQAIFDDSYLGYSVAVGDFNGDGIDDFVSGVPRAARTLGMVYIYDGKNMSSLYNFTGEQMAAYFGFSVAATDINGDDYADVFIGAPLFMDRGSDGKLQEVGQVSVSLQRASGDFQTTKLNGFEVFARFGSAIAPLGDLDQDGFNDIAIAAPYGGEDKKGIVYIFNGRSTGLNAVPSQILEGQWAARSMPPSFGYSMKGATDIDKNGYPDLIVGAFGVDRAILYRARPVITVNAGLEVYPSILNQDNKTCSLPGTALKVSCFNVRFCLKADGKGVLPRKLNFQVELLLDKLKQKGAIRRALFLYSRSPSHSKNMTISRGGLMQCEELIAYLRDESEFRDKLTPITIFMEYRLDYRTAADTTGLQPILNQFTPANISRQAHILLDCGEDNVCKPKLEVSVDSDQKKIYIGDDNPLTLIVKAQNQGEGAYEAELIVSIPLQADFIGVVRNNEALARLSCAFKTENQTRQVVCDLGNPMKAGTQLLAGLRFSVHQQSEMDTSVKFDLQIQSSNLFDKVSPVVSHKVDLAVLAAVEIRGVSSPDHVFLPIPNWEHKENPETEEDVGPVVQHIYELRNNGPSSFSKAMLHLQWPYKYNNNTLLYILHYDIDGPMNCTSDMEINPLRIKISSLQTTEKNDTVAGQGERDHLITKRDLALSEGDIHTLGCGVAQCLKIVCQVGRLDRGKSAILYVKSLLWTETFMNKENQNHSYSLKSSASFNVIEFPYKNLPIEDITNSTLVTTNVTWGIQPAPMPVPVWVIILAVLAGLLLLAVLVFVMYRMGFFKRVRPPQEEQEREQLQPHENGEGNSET
αvβ3 integrin on human cells (human), sequence (P05106 27-788, chain 2 of 2, further chain): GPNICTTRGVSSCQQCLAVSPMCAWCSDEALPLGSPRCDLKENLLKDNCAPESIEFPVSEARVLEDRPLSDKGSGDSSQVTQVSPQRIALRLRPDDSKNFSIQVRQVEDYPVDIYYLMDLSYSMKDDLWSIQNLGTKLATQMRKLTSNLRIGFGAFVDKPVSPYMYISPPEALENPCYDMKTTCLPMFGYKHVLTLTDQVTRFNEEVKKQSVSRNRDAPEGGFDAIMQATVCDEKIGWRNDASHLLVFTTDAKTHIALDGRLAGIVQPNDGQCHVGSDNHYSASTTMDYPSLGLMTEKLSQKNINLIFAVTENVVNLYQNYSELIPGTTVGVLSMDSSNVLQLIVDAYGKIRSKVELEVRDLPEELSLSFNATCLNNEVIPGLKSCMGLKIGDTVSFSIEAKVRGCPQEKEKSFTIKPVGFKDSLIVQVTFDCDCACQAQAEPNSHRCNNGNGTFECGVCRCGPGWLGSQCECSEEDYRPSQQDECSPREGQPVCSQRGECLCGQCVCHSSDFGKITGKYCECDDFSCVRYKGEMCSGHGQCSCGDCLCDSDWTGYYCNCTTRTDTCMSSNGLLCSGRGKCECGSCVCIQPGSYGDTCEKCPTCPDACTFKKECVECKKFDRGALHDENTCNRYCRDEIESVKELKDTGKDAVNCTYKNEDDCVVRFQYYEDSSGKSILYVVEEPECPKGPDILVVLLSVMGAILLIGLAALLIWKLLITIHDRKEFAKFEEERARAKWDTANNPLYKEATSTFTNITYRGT
α6β1 integrin on human cells (1064SK fibroblasts, endothelial cells) (human), sequence (P23229 24-1130, chain 1 of 2): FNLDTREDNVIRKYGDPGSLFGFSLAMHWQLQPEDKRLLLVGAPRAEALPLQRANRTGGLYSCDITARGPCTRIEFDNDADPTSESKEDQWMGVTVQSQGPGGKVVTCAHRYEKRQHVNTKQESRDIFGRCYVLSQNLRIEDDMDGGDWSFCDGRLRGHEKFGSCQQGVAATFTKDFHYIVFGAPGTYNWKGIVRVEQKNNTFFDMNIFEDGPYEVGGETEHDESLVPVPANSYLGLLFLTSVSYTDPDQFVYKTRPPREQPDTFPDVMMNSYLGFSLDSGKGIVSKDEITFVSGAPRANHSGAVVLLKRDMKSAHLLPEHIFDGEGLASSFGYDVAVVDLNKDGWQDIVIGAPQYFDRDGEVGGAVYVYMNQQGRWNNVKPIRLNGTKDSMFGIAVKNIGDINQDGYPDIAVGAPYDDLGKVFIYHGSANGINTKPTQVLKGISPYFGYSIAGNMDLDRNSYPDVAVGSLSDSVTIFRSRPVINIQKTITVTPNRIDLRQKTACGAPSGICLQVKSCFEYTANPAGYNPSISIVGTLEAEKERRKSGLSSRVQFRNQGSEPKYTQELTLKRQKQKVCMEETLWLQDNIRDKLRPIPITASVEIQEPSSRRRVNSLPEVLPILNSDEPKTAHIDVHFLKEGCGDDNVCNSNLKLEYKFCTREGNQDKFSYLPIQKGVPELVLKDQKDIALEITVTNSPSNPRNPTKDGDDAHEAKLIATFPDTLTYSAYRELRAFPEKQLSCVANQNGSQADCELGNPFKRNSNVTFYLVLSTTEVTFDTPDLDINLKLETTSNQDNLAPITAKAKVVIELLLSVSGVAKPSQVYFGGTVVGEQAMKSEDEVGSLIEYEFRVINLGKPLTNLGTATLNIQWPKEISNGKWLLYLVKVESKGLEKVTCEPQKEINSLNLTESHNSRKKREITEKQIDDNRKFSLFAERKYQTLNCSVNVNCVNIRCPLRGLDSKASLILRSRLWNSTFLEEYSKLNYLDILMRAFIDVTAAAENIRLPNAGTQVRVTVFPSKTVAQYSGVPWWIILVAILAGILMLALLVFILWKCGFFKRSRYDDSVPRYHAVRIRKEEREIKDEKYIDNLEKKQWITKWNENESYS
α6β1 integrin on human cells (1064SK fibroblasts, endothelial cells) (human), sequence (P05556 21-798, chain 2 of 2, further chain): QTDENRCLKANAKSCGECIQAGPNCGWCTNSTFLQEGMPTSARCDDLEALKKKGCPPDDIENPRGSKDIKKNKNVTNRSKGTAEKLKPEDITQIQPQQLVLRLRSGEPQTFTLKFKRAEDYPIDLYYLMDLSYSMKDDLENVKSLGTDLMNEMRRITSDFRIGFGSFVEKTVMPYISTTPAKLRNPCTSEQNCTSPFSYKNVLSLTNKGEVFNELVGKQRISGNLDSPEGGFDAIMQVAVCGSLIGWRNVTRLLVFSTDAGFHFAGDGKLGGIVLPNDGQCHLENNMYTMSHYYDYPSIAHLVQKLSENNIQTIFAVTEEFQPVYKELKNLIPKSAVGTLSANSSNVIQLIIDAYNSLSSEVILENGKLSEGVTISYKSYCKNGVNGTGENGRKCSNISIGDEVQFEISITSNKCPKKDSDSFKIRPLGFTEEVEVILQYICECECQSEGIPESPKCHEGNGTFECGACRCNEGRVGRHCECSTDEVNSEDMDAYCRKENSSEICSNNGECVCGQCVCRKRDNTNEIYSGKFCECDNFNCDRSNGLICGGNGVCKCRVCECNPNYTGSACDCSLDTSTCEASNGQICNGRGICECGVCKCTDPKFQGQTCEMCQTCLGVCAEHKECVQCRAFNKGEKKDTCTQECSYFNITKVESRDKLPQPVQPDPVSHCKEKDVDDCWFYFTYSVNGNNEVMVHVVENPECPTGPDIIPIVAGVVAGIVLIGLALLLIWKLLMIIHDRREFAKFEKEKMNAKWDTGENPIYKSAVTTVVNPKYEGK

Take mouse laminin (ligand): in assay [1], the 1064SK fibroblast adhesion to laminin (5 µg/ml), with anti-α6 antibody 20 µg/ml (A620) worked out at 0.48 A620; the 1064SK fibroblast adhesion to laminin (5 µg/ml), without anti-α6 antibody (A620) was 0.62 A620; the inhibition of 1064SK fibroblast adhesion to laminin by anti-α6 antibody amounted to 22%.
In the case of “human Cyr61 (from UniProt O00622 25-381) (ligand)”, in assay [1], the 1064SK fibroblast adhesion to Cyr61 (2 µg/ml), with anti-α6 antibody 20 µg/ml (A620) worked out at 0.08 A620; the 1064SK fibroblast adhesion to Cyr61 (2 µg/ml), with anti-β1 antibody JB1A 50 µg/ml (A620) is 0.14 A620; the 1064SK fibroblast adhesion to Cyr61 (2 µg/ml), without anti-α6 antibody (A620) was found to be 0.53 A620; the 1064SK fibroblast adhesion to Cyr61 (2 µg/ml), without anti-β1 antibody JB1A (A620) was determined as 0.53 A620. For the same substance, in assay [1], the 1064SK fibroblast adhesion to Cyr61 (A620), antibody: None (control) is 0.58 A620; the 1064SK fibroblast adhesion to Cyr61 (A620), antibody: anti-α1 (40 µg/ml) stood at 0.54 A620; the 1064SK fibroblast adhesion to Cyr61 (A620), antibody: anti-α1 + anti-α2 + anti-α3 (40 µg/ml each) was determined as 0.56 A620; the 1064SK fibroblast adhesion to Cyr61 (A620), antibody: anti-α2 (40 µg/ml) turned out to be 0.6 A620. In assay [1], the 1064SK fibroblast adhesion to Cyr61 (A620), antibody: anti-α3 (40 µg/ml) amounted to 0.55 A620; the 1064SK fibroblast adhesion to Cyr61 (A620), antibody: anti-α4 (40 µg/ml) is 0.56 A620; the inhibition of 1064SK fibroblast adhesion to Cyr61 by anti-α6 antibody is more than 80%; the inhibition of 1064SK fibroblast adhesion to Cyr61 by anti-β1 antibody JB1A is 75%. Also, the inhibition of 1064SK fibroblast adhesion to wild-type Cyr61 by anti-α6 antibody (20 µg/ml) in assay [1] stood at 78%. Besides, in assay [2], the HUVE cell adhesion to wild-type Cyr61 (5 µg/ml), relative binding capacity, pre-incubation: Anti-αvβ3 antibody (LM609, 40 µg/ml) worked out at 42%; the HUVE cell adhesion to wild-type Cyr61 (5 µg/ml), relative binding capacity, pre-incubation: EDTA (2.5 mM) is 22%; the HUVE cell adhesion to wild-type Cyr61 (5 µg/ml), relative binding capacity, pre-incubation: None came to 100%; the HUVE cell adhesion to wild-type Cyr61 (5 µg/ml), relative binding capacity, pre-incubation: RGD peptide (1 mM) came out at 50%.
